Source: US12692310B2, “ASIC1 channel antagonist antibody” (ShanghaiTech University, priority 2019, dated 2026)

Key:
mASIC1a-eYFP = molecular target: T1, mASIC1a-eYFP (Mus musculus, UniProt Q6NXK8); assay: Species/subtype selectivity, FACS binding and ICC, transfected CHO-K1 cells; assay type: cell-based
T1 construct: expressed in transfected cells; host or cells: CHO-K1, transient
T1 sequence (Q6NXK8 1-526): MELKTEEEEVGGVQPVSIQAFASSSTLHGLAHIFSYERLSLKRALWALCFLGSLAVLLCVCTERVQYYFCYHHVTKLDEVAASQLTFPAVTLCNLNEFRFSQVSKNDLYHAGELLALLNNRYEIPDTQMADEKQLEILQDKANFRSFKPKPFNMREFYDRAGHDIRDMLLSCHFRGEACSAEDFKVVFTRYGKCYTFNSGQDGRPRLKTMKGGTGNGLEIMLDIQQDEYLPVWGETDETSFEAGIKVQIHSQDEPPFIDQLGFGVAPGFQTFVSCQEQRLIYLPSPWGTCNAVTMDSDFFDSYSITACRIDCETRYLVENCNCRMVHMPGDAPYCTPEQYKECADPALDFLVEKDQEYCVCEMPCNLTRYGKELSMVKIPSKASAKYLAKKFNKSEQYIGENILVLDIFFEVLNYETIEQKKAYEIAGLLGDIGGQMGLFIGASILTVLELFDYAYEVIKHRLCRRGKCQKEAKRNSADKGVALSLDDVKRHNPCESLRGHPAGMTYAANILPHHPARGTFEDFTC
Description: (§1) Cell Membrane Colocalization Studies Using Immunocytochemistry (ICC). Cells (CHO-K1) were seeded onto the poly-D-lysine-coated glass bottom 24-well plates at a concentration of 2×10^5 cells per mL. After 12 h of cultivation, the CHO-K1 cells were transfected with ASIC plasmids by Lipofectin 3000 reagent. Twenty-four hours after transfection, the cells were fixed in 4% paraformaldehyde and incubated for 30 min in a blocking solution (5% goat serum in PBS). The resulting cells were incubated with […] ASC06-IgG1 at 4° C. overnight followed by three PBS washes for 5 min each and incubation with the Alexa555-conjugated goat anti-human secondary antibody (Life Technology). After three additional PBS washes for 5 min each, the nuclei of the cells were stained with DAPI (#10236276001; Roche). The ICC analysis was performed on a laser scanning confocal microscopy (ZEISS LSM710) with a 63×N.A. 1.4 objective at 25° C. Images were collected on a 1,024×1,024-pixel EM-CCD camera. Data acquisition and analyses were performed with the ZEN 2012 professional software.
(§2) To test the species and subtype selectivity of ASC06-IgG1, vectors encoding human ASIC1b-eYFP fusion, rat ASIC1a-eYFP fusion, mouse ASIC1a-eYFP fusion, hASIC2a-eYFP fusion, hASIC2b-eYFP fusion, and hASIC3a-eYFP fusion were constructed. The CHO-K1 cells were transiently transfected with these plasmids. FACS binding assay and immunocytochemistry (ICC) were carried out to determine if ASC06-IgG1 is able to bind to the cell surface-expressed ASIC homologs and isotypes.

rASIC1a-eYFP = molecular target: T2, rASIC1a-eYFP (Rattus norvegicus, UniProt P55926); assay: as above; assay type: cell-based
T2 construct: expressed in transfected cells; host or cells: CHO-K1, transient
T2 sequence (P55926 1-526): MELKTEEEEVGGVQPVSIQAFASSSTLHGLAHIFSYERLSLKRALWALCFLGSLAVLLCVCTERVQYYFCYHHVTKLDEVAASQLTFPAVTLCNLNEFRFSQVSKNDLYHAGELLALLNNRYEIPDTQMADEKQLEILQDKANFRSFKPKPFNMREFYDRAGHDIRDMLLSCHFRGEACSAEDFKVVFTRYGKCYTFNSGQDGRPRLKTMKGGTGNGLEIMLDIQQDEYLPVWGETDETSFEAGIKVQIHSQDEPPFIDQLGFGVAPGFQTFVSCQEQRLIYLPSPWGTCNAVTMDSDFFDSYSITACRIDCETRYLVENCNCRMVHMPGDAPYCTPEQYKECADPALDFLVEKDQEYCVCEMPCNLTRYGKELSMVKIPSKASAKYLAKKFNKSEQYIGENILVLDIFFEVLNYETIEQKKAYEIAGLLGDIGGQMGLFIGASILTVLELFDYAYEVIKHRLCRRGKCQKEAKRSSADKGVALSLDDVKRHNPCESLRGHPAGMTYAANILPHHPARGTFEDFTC
Description: as §1, §2

B1: ASC06-IgG1: ASC06 antibody converted into a full length IgG1 form (antibody, V domains shown)
VH: QVQLQQSGGGLVQPGGSLRLSCAASGFTFSSYAMSWVRQAPGKGLEWVSAISGSGGSTYYADSVKGRFTISRDNSKNTLYLQMNSLRAEDTAVYYCAKDSFYGYSKGDWGQGTLVTVSS
VL: QSALTQPASVSGSPGQSITISCTGTSSDVGAYNYVSWYQQQPGKAPKLMIYGVSNRPSGVSNRFSGSKSGNAASLTISGLQAEDEADYYCSSYTSSSTYVFGTGTKLTVLG
- FACS recognition of mouse ASIC1a (mASIC1a-eYFP; FACS): recognized
- ICC membrane co-localization with mASIC1a-eYFP (mASIC1a-eYFP; ICC staining): membrane co-localization
- FACS recognition of rat ASIC1a (rASIC1a-eYFP; FACS): recognized
- ICC membrane co-localization with rASIC1a-eYFP (rASIC1a-eYFP; ICC staining): membrane co-localization
